Measured values from patent publication US20240092924A1 (RIKEN, published 2024).
Values joined by “and” are separate entries in the source; they are usually repeats but may differ in a detail not shown here. Equal entries are not always repeated.

T1: wild-type human sodium taurocholate cotransporting polypeptide (human NTCP) (human, UniProt Q14973 1-349)
T1 sequence: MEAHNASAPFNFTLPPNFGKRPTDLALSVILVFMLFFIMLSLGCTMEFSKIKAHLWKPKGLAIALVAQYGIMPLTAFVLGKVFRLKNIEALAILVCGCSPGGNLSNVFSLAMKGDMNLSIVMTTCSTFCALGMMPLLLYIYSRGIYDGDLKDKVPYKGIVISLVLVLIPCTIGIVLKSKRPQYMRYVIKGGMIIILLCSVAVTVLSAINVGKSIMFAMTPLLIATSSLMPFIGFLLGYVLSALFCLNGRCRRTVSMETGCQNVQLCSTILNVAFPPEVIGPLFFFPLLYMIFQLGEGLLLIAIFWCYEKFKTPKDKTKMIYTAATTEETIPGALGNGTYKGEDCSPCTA

T2: epitope region-containing peptide fragment (AFPPEVIGPLFFFPLLYMIFQLGEG-biotin) (C-terminal biotin)
T2 peptide: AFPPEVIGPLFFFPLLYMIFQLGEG

B1: Recombinant N6HB426 human chimeric IgG4 antibody (antibody)
heavy: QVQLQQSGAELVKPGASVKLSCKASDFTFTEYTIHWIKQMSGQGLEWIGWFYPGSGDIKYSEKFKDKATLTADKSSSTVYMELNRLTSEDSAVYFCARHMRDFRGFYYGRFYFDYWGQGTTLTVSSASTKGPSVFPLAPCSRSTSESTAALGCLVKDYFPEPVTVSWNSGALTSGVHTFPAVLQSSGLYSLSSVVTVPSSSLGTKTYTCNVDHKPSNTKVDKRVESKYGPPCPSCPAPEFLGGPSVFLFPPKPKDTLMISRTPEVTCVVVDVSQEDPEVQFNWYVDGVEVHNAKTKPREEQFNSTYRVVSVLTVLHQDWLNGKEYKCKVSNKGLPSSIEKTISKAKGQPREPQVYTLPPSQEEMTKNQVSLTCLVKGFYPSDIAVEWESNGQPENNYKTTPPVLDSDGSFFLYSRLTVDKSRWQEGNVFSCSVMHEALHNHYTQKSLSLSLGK
light: EIVLTQSPAIMSASPGEKVTITCRASSSVSSSYLHWYQQKSGVSPKLWIYSTSNLASGVPARFSGSGSGTSYSLTINSVEAEDAATYYCQQYSGYRWTFGGGTTLEIKRTVAAPSVFIFPPSDEQLKSGTASVVCLLNNFYPREAKVQWKVDNALQSGNSQESVTEQDSKDSTYSLSSTLTLSKADYEKHKVYACEVTHQGLSSPVTKSFNRGEC
notes: also called Recombinant N6HB426 human chimera IgG4 antibody; human chimeric antibody
B2: Recombinant N6HB426 mouse IgG2a antibody (antibody)
heavy: QVQLQQSGAELVKPGASVKLSCKASDFTFTEYTIHWIKQMSGQGLEWIGWFYPGSGDIKYSEKFKDKATLTADKSSSTVYMELNRLTSEDSAVYFCARHMRDFRGFYYGRFYFDYWGQGTTLTVSSAKTTAPSVYPLAPVCGGTTGSSVTLGCLVKGYFPEPVTLTWNSGSLSSGVHTFPALLQSGLYTLSSSVTVTSNTWPSQTITCNVAHPASSTKVDKKIEPRGPTIKPCPPCKCPAPNLLGGPSVFIFPPKIKDVLMISLSPIVTCVVVDVSEDDPDVQISWFVNNVEVHTAQTQTHREDYNSTLRVVSALPIQHQDWMSGKEFKCKVNNKDLPAPIERTISKPKGSVRAPQVYVLPPPEEEMTKKQVTLTCMVTDFMPEDIYVEWTNNGKTELNYKNTEPVLDSDGSYFMYSKLRVEKKNWVERNSYSCSVVHEGLHNHHTTKSFSRTPGK
light: EIVLTQSPAIMSASPGEKVTITCRASSSVSSSYLHWYQQKSGVSPKLWIYSTSNLASGVPARFSGSGSGTSYSLTINSVEAEDAATYYCQQYSGYRWTFGGGTTLEIKRADAAPTVSIFPPSSEQLTSGGASVVCFLNNFYPKDINVKWKIDGSERQNGVLNSWTDQDSKDSTYSMSSTLTLTKDEYERHNSYTCEATHKTSTSPIVKSFNRNEC
notes: this is left out as a signal peptide; also called Recombinant mouse IgG2a antibody; N6HB426-20-IgG2a antibody
B3: N6HB426-20 antibody (antibody produced by hybridoma) (antibody, V domains shown)
VH: QVQLQQSGAELVKPGASVKLSCKASDFTFTEYTIHWIKQMSGQGLEWIGWFYPGSGDIKYSEKFKDKATLTADKSSSTVYMELNRLTSEDSAVYFCARHMRDFRGFYYGRFYFDYWGQGTTLTVSS
VL: EIVLTQSPAIMSASPGEKVTITCRASSSVSSSYLHWYQQKSGVSPKLWIYSTSNLASGVPARFSGSGSGTSYSLTINSVEAEDAATYYCQQYSGYRWTFGGGTTLEIKRA
notes: Mouse IgG purified from the hybridoma supernatant on Protein G; also called N6HB426-20 monoclonal antibody; N6HB426 antibody

Tests used:
[1] = target: T1, wild-type human sodium taurocholate …; assay: cell-based or functional assay
[2] = target: T2, epitope region-containing peptide …; assay: SPR (BIAcore 2000, 25 C); antibody captured via anti-human IgG on CM5, peptide as analyte; 1:1 Langmuir fit
Description: (§1) In short, a carboxymethylated dextran biosensor chip (CM5, BIAcore Inc.) was activated by N-ethyl-N′-(3-dimethylaminopropyl)-carbodiimide hydrochloride (EDC) and N-hydroxysuccinimide (NHS) in accordance with the provider's instruction. An anti-mouse IgG antibody was diluted with 10 mM sodium acetate (pH5.2) up to 30 μg/ml. The dilution was injected at a flow rate of 5 to 10 μl/minute such that the reaction unit (RU) of the protein bound became 9,000 to 14,000 RU. […] The diluted antibody was injected at a flow rate of 5 to 10 μl/minute such that the reaction unit (RU) of the protein bound became 9,000 to 14,000 RU. After injection of each of the anti IgG antibodies, 1 M ethanolamine was injected in order to block unreactive groups. […] To the chip, a solution of an epitope region-containing peptide fragment diluted with the running buffers at different concentrations was added at 25° C. at a flow rate of 10 μl/minute for 2 minutes.
(§2) Using simple one-to-one Langmuir binding model (BIAcore Evaluation software version 3.1) by fitting sensor grams of antigen-antibody association and dissociation at the same time, association rate (Ka) and dissociation rate (Kd) were calculated. A Kd/Ka ratio was calculated to obtain an equilibrium dissociation constant (KD).

[3] = target: T2, epitope region-containing peptide …; assay: SPR (BIAcore 2000, 25 C); antibody captured via anti-mouse IgG on CM5, peptide as analyte; 1:1 Langmuir fit
Description: as §1, §2

Binder | IC50, inhibition of HBV/NL pseudo-virus infection of HepG2-human NTCP cells [1] [µg/mL] | Kd [2] [nM] | koff [2] [s⁻¹] | kon [2] [M⁻¹ s⁻¹] | Kd [3] [nM] | koff [3] [s⁻¹] | kon [3] [M⁻¹ s⁻¹] | IC50, inhibition of infection with pseudo-HBV (NanoLuc) [1] | IC50, inhibition of live HBV infection of HepG2/NTCP-myc (HBs antigen level) [1] [nM]
B1 | 1.7 | 0.129 | 1.73e-07 | 1340 | – | – | – | – | –
B2 | – | – | – | – | 0.313 | 2.39e-07 | 762 | – | –
B3 | 1.7 | – | – | – | 0.0388 | 3.19e-08 | 821 | 0.27 µg/mL and 1.8 nM | 20 to 30
